Laboratory results: patent US20230138315A1 (JIANGSU HENGRUI MEDICINE, published 2023)

Legend:
[1] = biological target: T1, human-ANGPTL3(17-460)-His (human, UniProt Q9Y5C1 17-460, biotin-labelled (labelling kit, sites not stated)); test: HTRF; biotin-labelled antigen with Streptavidin-Tb cryptate
T1 construct: also called full-length human ANGPTL3
T1 sequence: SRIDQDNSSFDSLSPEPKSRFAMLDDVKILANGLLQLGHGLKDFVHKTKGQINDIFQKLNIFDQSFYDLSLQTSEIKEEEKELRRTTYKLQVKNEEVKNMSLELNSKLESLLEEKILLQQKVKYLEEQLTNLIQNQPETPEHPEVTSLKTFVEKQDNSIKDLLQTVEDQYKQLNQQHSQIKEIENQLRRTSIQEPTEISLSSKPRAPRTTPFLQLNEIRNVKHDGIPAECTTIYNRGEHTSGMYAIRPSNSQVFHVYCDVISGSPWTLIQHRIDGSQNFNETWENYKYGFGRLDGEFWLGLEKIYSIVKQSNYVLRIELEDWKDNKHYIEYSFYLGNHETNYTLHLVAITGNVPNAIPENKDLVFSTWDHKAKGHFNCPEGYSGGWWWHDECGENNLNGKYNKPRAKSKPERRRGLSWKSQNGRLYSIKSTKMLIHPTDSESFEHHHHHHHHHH

[2] = biological target: T2, cynomolgus monkey ANGPTL3(17-460)-His (cynomolgus monkey, UniProt Q9Y5C1 17-460 (human entry), biotin-labelled in the ELISA and HTRF assays (sites not given)); test: as above
T2 construct: also called full-length cynomolgus monkey ANGPTL3; Cyno ANGPTL3
T2 chain: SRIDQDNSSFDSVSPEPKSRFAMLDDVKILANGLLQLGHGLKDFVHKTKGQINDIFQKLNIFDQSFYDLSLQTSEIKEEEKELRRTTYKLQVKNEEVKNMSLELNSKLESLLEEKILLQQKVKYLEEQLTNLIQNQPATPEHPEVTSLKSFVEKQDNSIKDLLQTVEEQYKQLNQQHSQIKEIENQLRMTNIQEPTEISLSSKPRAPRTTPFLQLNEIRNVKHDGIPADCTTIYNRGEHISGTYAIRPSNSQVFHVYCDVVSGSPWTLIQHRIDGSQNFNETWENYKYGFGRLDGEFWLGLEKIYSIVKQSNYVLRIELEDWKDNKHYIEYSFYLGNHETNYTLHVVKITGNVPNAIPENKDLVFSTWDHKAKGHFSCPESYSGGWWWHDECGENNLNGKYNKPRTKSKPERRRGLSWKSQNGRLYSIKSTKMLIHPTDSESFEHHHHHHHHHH

B1: P8BG (antibody, human IgG4 S228P, kappa, V domains shown)
VH: QVQLVQSGAEVKKPGASVKVSCKASGYTFTSYDINWVRQAPGQGLEWVGLINPREDSTSYAQKFQGRVTMTRDTSTSTMYMELSSLRSEDTAVYFCARDLGSIREVLYYGMDVWGQGTTVTVSS
VL: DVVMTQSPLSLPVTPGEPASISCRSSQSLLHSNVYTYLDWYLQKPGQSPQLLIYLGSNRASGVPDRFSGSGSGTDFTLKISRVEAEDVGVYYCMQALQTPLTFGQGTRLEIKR
notes: also called anti-ANGPTL3 antibody P8BG; P8B (variable regions)
B1 showed an EC50 [1] of 0.277 nM and an EC50 [2] of 0.36 nM.
